In publication PMC3504387 (Chemmedchem, 2012):
Where no end group is shown, it is not given here. The star is where a group is joined. Biotin = O=C1N[C@H]2[C@H](CS[C@H]2CCCCC(=O)*)N1; Ahx = NCCCCCC(=O)O

T1: GST–PPARα fusion protein (purified ligand binding domain of PPARα)
T1 sequence (Q07869 whole entry, species assumed, looked up): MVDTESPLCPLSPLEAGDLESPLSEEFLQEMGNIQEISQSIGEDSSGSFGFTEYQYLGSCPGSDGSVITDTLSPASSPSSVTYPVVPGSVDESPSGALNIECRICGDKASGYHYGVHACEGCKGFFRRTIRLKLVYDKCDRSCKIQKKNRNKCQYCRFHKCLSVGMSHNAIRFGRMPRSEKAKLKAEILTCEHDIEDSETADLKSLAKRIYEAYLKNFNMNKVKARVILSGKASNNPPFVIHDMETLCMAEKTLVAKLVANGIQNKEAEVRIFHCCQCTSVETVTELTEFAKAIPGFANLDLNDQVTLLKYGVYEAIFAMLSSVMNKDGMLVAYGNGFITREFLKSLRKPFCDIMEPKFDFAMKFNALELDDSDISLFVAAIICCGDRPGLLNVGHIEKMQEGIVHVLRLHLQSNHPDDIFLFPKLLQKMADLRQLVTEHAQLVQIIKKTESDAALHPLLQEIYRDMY

T2: GST–PPARγ fusion protein (purified ligand binding domain of PPARγ)
T2 chain: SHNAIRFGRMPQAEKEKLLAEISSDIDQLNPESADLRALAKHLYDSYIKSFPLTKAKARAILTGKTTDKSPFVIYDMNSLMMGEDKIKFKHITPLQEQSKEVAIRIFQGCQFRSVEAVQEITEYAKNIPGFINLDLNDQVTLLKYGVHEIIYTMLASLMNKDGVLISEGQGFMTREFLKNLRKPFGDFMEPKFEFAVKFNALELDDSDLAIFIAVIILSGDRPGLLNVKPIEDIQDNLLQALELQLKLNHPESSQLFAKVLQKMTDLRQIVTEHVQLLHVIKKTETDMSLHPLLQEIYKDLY


Experiments:
[1] = molecular target: T1, GST–PPARα fusion protein (purified ligand binding domain of PPARα); test: FRET or BRET; homogeneous TR-FRET as a1, 12-concentration dose–response of RO4899100; the EC50 is of the compound; delta ratio in % of the reference compound at 10 μM (RO4899100 for PPARα, edaglitazone for PPARγ)
[2] = molecular target: T1, GST–PPARα fusion protein (purified ligand binding domain of PPARα); test: FRET or BRET; homogeneous TR-FRET as a1, 12-concentration dose–response of fenofibric acid; the EC50 is of the compound; delta ratio in % of the reference compound RO4899100 at 10 μM
[3] = molecular target: T1, GST–PPARα fusion protein (purified ligand binding domain of PPARα); test: FRET or BRET; homogeneous TR-FRET as a1, 12-concentration dose–response of edaglitazone; the EC50 is of the compound; delta ratio in % of the reference compound at 10 μM (RO4899100 for PPARα, edaglitazone for PPARγ)
[4] = molecular target: T1, GST–PPARα fusion protein (purified ligand binding domain of PPARα); test: FRET or BRET; homogeneous TR-FRET as a1, 12-concentration dose–response of tesaglitazar; the EC50 is of the compound; delta ratio in % of the reference compound at 10 μM (RO4899100 for PPARα, edaglitazone for PPARγ)
[5] = molecular target: T1, GST–PPARα fusion protein (purified ligand binding domain of PPARα); test: FRET or BRET; homogeneous TR-FRET as a1, 12-concentration dose–response of aleglitazar; the EC50 is of the compound; delta ratio in % of the reference compound at 10 μM (RO4899100 for PPARα, edaglitazone for PPARγ)
[6] = molecular target: T1, GST–PPARα fusion protein (purified ligand binding domain of PPARα); test: FRET or BRET; homogeneous TR-FRET as a1, 12-concentration dose–response of muraglitazar; the EC50 is of the compound; delta ratio in % of the reference compound at 10 μM (RO4899100 for PPARα, edaglitazone for PPARγ)
[7] = molecular target: T1, GST–PPARα fusion protein (purified ligand binding domain of PPARα); test: FRET or BRET; homogeneous TR-FRET as a1, 12-concentration dose–response of rosiglitazone; the EC50 is of the compound; delta ratio in % of the reference compound at 10 μM (RO4899100 for PPARα, edaglitazone for PPARγ)
[8] = molecular target: T2, GST–PPARγ fusion protein (purified …); test: FRET or BRET; homogeneous TR-FRET as a1, 12-concentration dose–response of aleglitazar; the EC50 is of the compound; delta ratio in % of the reference compound at 10 μM (RO4899100 for PPARα, edaglitazone for PPARγ); details: both partners purified
[9] = molecular target: T2, GST–PPARγ fusion protein (purified …); test: FRET or BRET; homogeneous TR-FRET as a1, 12-concentration dose–response of rosiglitazone; the EC50 is of the compound; delta ratio in % of the reference compound at 10 μM (RO4899100 for PPARα, edaglitazone for PPARγ); details: both partners purified
[10] = molecular target: T2, GST–PPARγ fusion protein (purified …); test: FRET or BRET; homogeneous TR-FRET as a1, 12-concentration dose–response of edaglitazone; the EC50 is of the compound; delta ratio in % of the reference compound at 10 μM (RO4899100 for PPARα, edaglitazone for PPARγ); details: both partners purified
[11] = molecular target: T2, GST–PPARγ fusion protein (purified …); test: FRET or BRET; homogeneous TR-FRET as a1, 12-concentration dose–response of tesaglitazar; the EC50 is of the compound; delta ratio in % of the reference compound at 10 μM (RO4899100 for PPARα, edaglitazone for PPARγ); details: both partners purified
[12] = molecular target: T2, GST–PPARγ fusion protein (purified …); test: FRET or BRET; homogeneous TR-FRET as a1, 12-concentration dose–response of pioglitazone; the EC50 is of the compound; delta ratio in % of the reference compound at 10 μM (RO4899100 for PPARα, edaglitazone for PPARγ); details: both partners purified
[13] = molecular target: T2, GST–PPARγ fusion protein (purified …); test: FRET or BRET; homogeneous TR-FRET as a1, 12-concentration dose–response of muraglitazar; the EC50 is of the compound; delta ratio in % of the reference compound at 10 μM (RO4899100 for PPARα, edaglitazone for PPARγ); details: both partners purified
[14] = molecular target: T2, GST–PPARγ fusion protein (purified …); test: FRET or BRET; homogeneous TR-FRET as a1, 12-concentration dose–response of farglitazar; the EC50 is of the compound; delta ratio in % of the reference compound edaglitazone at 10 μM; details: both partners purified

Binder | EC50 of RO4899100 for recruitment [1] [nM] | EC50 of fenofibric acid for recruitment [2] [nM] | delta ratio with fenofibric acid [2] [%] | EC50 of edaglitazone for recruitment [3] [nM] | delta ratio with edaglitazone [3] [%] | EC50 of tesaglitazar for recruitment [4] [nM] | delta ratio with tesaglitazar [4] [%] | EC50 of aleglitazar for recruitment [5] [nM] | delta ratio with aleglitazar [5] [%] | EC50 of muraglitazar for recruitment [6] [nM] | delta ratio with muraglitazar [6] [%] | EC50 of aleglitazar for recruitment [8] [nM] | EC50 of rosiglitazone for recruitment [9] [nM] | EC50 of edaglitazone for recruitment [10] [nM] | EC50 of tesaglitazar for recruitment [11] [nM] | EC50 of pioglitazone for recruitment [12] [nM] | EC50 of muraglitazar for recruitment [13] [nM] | EC50 of farglitazar for recruitment [14] [nM] | further results
{Biotin-Ahx}-PKKENNALLRYLLDRDDPSDV (source: synthetic peptide (Jerini or Biosynthan, Berlin)) [RAC3_M3 cofactor peptide (receptor-associated co-activator 3, motif 3)] | 25.9 |  |  | 1920 | 24 | 941 | 60 | 4.4 | 62 | 330 | 35 | 9.5 | 271 | 33.1 | 233 | 1860 | 39.5 |  | 
{Biotin-Ahx}-SNMHGSLLQEKHRILHKLLQNGNSP (source: synthetic peptide (Jerini or Biosynthan, Berlin)) [RAC3_M2 cofactor peptide (receptor-associated co-activator 3, motif 2)] |  |  |  |  |  |  |  |  |  |  |  | 7.4 | 125 | 22.7 | 110 | 1070 | 16.5 | 6.5 | 
{Biotin-Ahx}-DSKYSQTSHKLVQLLTTTAEQQLRH (source: synthetic peptide (Jerini or Biosynthan, Berlin)) [SRC1_M1 cofactor peptide (steroid receptor co-activator 1, motif 1)] | 16.1 | 4360 | 39 | 867 | 41 | 427 |  | 2.9 | 94 | 186 | 74 | 11 | 240 | 38.1 | 226 | 2260 | 35.6 | 8.6 | EC50 of rosiglitazone for recruitment [7]: 2630 nM; delta ratio with rosiglitazone [7]: 20%
{Biotin-Ahx}-AVQEHASTNMGLEAIIRKALMGKYD (silencing mediator of retinoid and thyroid hormone receptors (SMRT), ID2, residues 2331-2355; also called SMRT2; source: synthetic peptide (Jerini or Biosynthan, Berlin)) |  |  |  |  | -20 |  | -26 |  | -51 |  | -28 |  |  |  |  |  |  |  | EC50 of RO4899100 for displacement [1]: 108 nM; EC50 of aleglitazar for displacement [8]: 14.4 nM; EC50 of rosiglitazone for displacement [9]: 333 nM; EC50 of edaglitazone for displacement [10]: 41.6 nM; EC50 of edaglitazone for displacement [3]: 790 nM; EC50 of tesaglitazar for displacement [4]: 1780 nM; EC50 of aleglitazar for displacement [5]: 14.1 nM; EC50 of tesaglitazar for displacement [11]: 346 nM; EC50 of muraglitazar for displacement [6]: 563 nM; EC50 of pioglitazone for displacement [12]: 3700 nM; EC50 of muraglitazar for displacement [13]: 60.3 nM; EC50 of farglitazar for displacement [14]: 11.6 nM

Further lines, with some results ahead:

EC50 of RO4899100 for recruitment [1] [nM] | EC50 of fenofibric acid for recruitment [2] [nM] | delta ratio with fenofibric acid [2] [%] | EC50 of edaglitazone for recruitment [3] [nM] | delta ratio with edaglitazone [3] [%] | EC50 of tesaglitazar for recruitment [4] [nM] | delta ratio with tesaglitazar [4] [%] | EC50 of aleglitazar for recruitment [5] [nM] | delta ratio with aleglitazar [5] [%] | EC50 of muraglitazar for recruitment [6] [nM] | delta ratio with muraglitazar [6] [%] | EC50 of aleglitazar for recruitment [8] [nM] | EC50 of rosiglitazone for recruitment [9] [nM] | EC50 of edaglitazone for recruitment [10] [nM] | EC50 of tesaglitazar for recruitment [11] [nM] | EC50 of pioglitazone for recruitment [12] [nM] | EC50 of muraglitazar for recruitment [13] [nM] | EC50 of farglitazar for recruitment [14] [nM] | Binder | further results
12.7 | 1290 | 25 | 3670 | 32 | 377 | 53 | 2.3 | 56 | 88.9 | 29 |  |  |  |  |  |  |  | {Biotin-Ahx}-SPKKKENALLRYLLDKDDTK [TIF2_M3 cofactor peptide (transcriptional intermediary factor 2, motif 3)] | delta ratio with RO4899100 [1]: 100%
4.9 | 3450 | 47 |  |  | 111 | 52 | 2.4 | 53 | 8.4 | 23 | 11.3 | 241 | 38.1 | 196 | 2120 | 37.4 | 12.1 | {Biotin-Ahx}-LDASKKKESKDHQLLRYLLDKDEKD (source: synthetic peptide (Jerini or Biosynthan, Berlin)) [SRC1_M3 cofactor peptide (steroid receptor co-activator 1, motif 3)] | EC50 of rosiglitazone for recruitment [7]: 3070 nM; delta ratio with rosiglitazone [7]: 21%
8.6 | 2160 | 34 | 945 | 26 | 326 | 70 | 2.1 | 53 | 96.5 | 31 | 43.2 | 951 | 86.5 | 274 |  | 94.3 | 16.1 | {Biotin-Ahx}-SRLHDSKGQTKLLQLLTTKSD (transcriptional intermediary factor 2 (TIF2), motif 1, residues 630-650; source: synthetic peptide (Jerini or Biosynthan, Berlin)) [TIF2_M1 cofactor peptide (transcriptional intermediary factor 2, motif 1)] | 
5.9 | 5200 | 44 | 294 | 21 | 182 | 54 | 1.6 | 53 | 34 | 33 |  |  |  |  |  |  |  | {Biotin-Ahx}-STHGTSLKEKHKILHRLLQDS [TIF2_M2 cofactor peptide (transcriptional intermediary factor 2, motif 2)] | delta ratio with RO4899100 [1]: 100%
